Laboratory results from the Human Domainome abundance scans (Beltran et al. 2025).
± gives the uncertainty stated by the source.

B1: RanBP-type and C3HC4-type zinc finger-containing protein 1, residues 369 to 411; numbered along this chain, Q9BYM8 (parent)
chain: YHCKTPDCKGWCFFEDDVNEFTCPVCFHVNCLLCKAIHEQMNC
B2: Homeobox expressed in ES cells 1, residues 110 to 165; numbered along this chain, Q9UBX0 (parent)
chain: RPRTAFTQNQIEVLENVFRVNCYPGIDIREDLAQKLNLEEDRIQIWFQNRRAKLKR

Variants of: B1
Assay: abundance fitness (aPCA) (normalised: wild type 0, dead -1); higher = more abundant; growth selection in yeast, the domain comes from the species named
Details: Homo sapiens

YHCKTPDCKGWCFFSDDVNEFTCPVCFHVNCLLCKAIHEQMNC [E15S] and KHCKTPDCKGWCFFEDDVNEFTCPVCFHVNCLLCKAIHEQMNC [Y1K] are within error of each other in abundance fitness: -0.254 ± 0.08 for the first, -0.336 ± 0.095 for the second.

Going from THCKTPDCKGWCFFEDDVNEFTCPVCFHVNCLLCKAIHEQMNC [Y1T] to YHCKTPDCKGWCFFEDDVNEFTCPVCFHVNCLLCKAIHEGMNC [Q40G], the abundance fitness rises from -0.24 ± 0.06 to 0.129 ± 0.038.

First: YHCKTPDCKGWCFFEDDMNEFTCPVCFHVNCLLCKAIHEQMNC [V18M]
Second: YHCKTPDCKGWCFFEDDGNEFTCPVCFHVNCLLCKAIHEQMNC [V18G]
The abundance fitness of the first is higher: -0.14 ± 0.08 for the first, -0.276 ± 0.041 for the second.

YHCKEPDCKGWCFFEDDVNEFTCPVCFHVNCLLCKAIHEQMNC [T5E] and YHCKTPDCKGWCFFEDDVNLFTCPVCFHVNCLLCKAIHEQMNC [E20L] are within error of each other in abundance fitness: -0.184 ± 0.061 for the first, -0.163 ± 0.054 for the second.

Going from YHCKTPDCKGWCFFEDDVNIFTCPVCFHVNCLLCKAIHEQMNC [E20I] to YHCKTPDCKGWCFFEDDVSEFTCPVCFHVNCLLCKAIHEQMNC [N19S], the abundance fitness rises from -0.465 ± 0.2 to 0.024 ± 0.047.

Going from YHCKTPDCKGWCFFEDDVLEFTCPVCFHVNCLLCKAIHEQMNC [N19L] to YHCKTPDCKGWCFFEDDVGEFTCPVCFHVNCLLCKAIHEQMNC [N19G], the abundance fitness falls from -0.081 ± 0.044 to -0.194 ± 0.038.

Compared with YHCKTPDCKGWCFFEDDVTEFTCPVCFHVNCLLCKAIHEQMNC [N19T], YHCKTPDCKGWCFFEDDVNEFTCPVCFHVNCLLCKALHEQMNC [I37L] is lower in abundance fitness: 0.09 ± 0.047 for the first, -0.219 ± 0.047 for the second.

Compared with YHCKTPDCKGWCFFEDDVNEFTCPVCFHVNCLLCKAWHEQMNC [I37W], YHCKTPDCKGWCFFEDDVNEFTCPVCFHVNCLLCKAQHEQMNC [I37Q] is higher in abundance fitness: -0.39 ± 0.05 for the first, -0.077 ± 0.18 for the second.

Going from YHCKTPMCKGWCFFEDDVNEFTCPVCFHVNCLLCKAIHEQMNC [D7M] to YHCKTPDCKGWCFFEDDVNEFTCPVCFHVLCLLCKAIHEQMNC [N30L], the abundance fitness falls from -0.202 ± 0.062 to -1.22 ± 0.16.

First: YHCKTPDCKGWCFFEDDVNEFTCPVCFHVSCLLCKAIHEQMNC [N30S]
Second: YHCKTPDCKGWCFFEDDVNEFTCPVCFHVMCLLCKAIHEQMNC [N30M]
The abundance fitness of the first is higher: -0.797 ± 0.076 for the first, -1.16 ± 0.12 for the second.

First: YHCKTPDCKGWCFFEDDVNEFTCPVCFHVICLLCKAIHEQMNC [N30I]
Second: YHCKTPDCKGWCFFEDDVNEFTCPCCFHVNCLLCKAIHEQMNC [V25C]
The abundance fitness of the first is lower: -0.835 ± 0.29 for the first, -0.181 ± 0.052 for the second.

YHCKTPDCKGWCFFEDDVNEFTCPHCFHVNCLLCKAIHEQMNC [V25H] and YHCKTPDCKGWCFFEDDVNEFTCPLCFHVNCLLCKAIHEQMNC [V25L] are within error of each other in abundance fitness: -0.093 ± 0.067 for the first, -0.113 ± 0.046 for the second.

Going from YHCKTPDCKGWCFFEDDVNEFTCPVCFHVNCLLCKMIHEQMNC [A36M] to YHCKTPDCKGWCFFEDDVNEFTCPVCFHVNCLLCKGIHEQMNC [A36G], the abundance fitness rises from -0.266 ± 0.068 to 0.051 ± 0.038.

Compared with YHCKTPDCKGVCFFEDDVNEFTCPVCFHVNCLLCKAIHEQMNC [W11V], YHCKTPDCKGCCFFEDDVNEFTCPVCFHVNCLLCKAIHEQMNC [W11C] is lower in abundance fitness: 0.116 ± 0.047 for the first, -0.088 ± 0.088 for the second.

Going from YHCKTPDCKGLCFFEDDVNEFTCPVCFHVNCLLCKAIHEQMNC [W11L] to YHCKTPDTKGWCFFEDDVNEFTCPVCFHVNCLLCKAIHEQMNC [C8T], the abundance fitness falls from 0.044 ± 0.054 to -0.919 ± 0.086.

YHCKTPDCKGWCSFEDDVNEFTCPVCFHVNCLLCKAIHEQMNC [F13S] and YHCKTFDCKGWCFFEDDVNEFTCPVCFHVNCLLCKAIHEQMNC [P6F] are within error of each other in abundance fitness: 0.066 ± 0.45 for the first, -0.493 ± 0.22 for the second.

First: YHCKTQDCKGWCFFEDDVNEFTCPVCFHVNCLLCKAIHEQMNC [P6Q]
Second: YHCKTPDCKGWCFFEDDVNEFTCPVCFKVNCLLCKAIHEQMNC [H28K]
The abundance fitness of the first is lower: -0.063 ± 0.046 for the first, 0.131 ± 0.054 for the second.

Compared with YHCKTPDCKGWCFFEDDVNEFTCPVRFHVNCLLCKAIHEQMNC [C26R], YHCKTPDCKGWCFFEDDVNEFTCQVCFHVNCLLCKAIHEQMNC [P24Q] is higher in abundance fitness: -0.754 ± 0.061 for the first, -0.099 ± 0.077 for the second.

YHCKTPDCKGWCFFEQDVNEFTCPVCFHVNCLLCKAIHEQMNC [D16Q] and YHCKTPDCKGWCFFEDDVNEFTCPVCHHVNCLLCKAIHEQMNC [F27H] are within error of each other in abundance fitness: 0.045 ± 0.059 for the first, 0.155 ± 0.057 for the second.

Compared with YHCKTPDCKGWCFFEDDVNEFTQPVCFHVNCLLCKAIHEQMNC [C23Q], YHCKTPDCKGWCFFEDDVNEFTTPVCFHVNCLLCKAIHEQMNC [C23T] is lower in abundance fitness: -0.621 ± 0.058 for the first, -0.761 ± 0.076 for the second.

Going from YHCKTPDCKGWCFFEDDVNEFTVPVCFHVNCLLCKAIHEQMNC [C23V] to YHCKTPDCKGWCFFEDDVNEFTKPVCFHVNCLLCKAIHEQMNC [C23K], the abundance fitness rises from -0.911 ± 0.096 to -0.529 ± 0.14.

YHCKTPDCKGWCFFEDDVNEFCCPVCFHVNCLLCKAIHEQMNC [T22C] and YHCKTPDCKGWCFFEDDVNEFKCPVCFHVNCLLCKAIHEQMNC [T22K] are within error of each other in abundance fitness: -0.149 ± 0.055 for the first, -0.102 ± 0.083 for the second.

YHCKTPDCKGWCFFEDDVNEFRCPVCFHVNCLLCKAIHEQMNC [T22R] and YHCKTPDCKGWCFFEDDVNEFICPVCFHVNCLLCKAIHEQMNC [T22I] are within error of each other in abundance fitness: -0.126 ± 0.041 for the first, -0.243 ± 0.084 for the second.

Compared with YHCKTPDCKGWCFFEDDVNEFTCPVCFHVNCLLWKAIHEQMNC [C34W], YHCKTPDCKDWCFFEDDVNEFTCPVCFHVNCLLCKAIHEQMNC [G10D] is higher in abundance fitness: -1.02 ± 0.094 for the first, -0.764 ± 0.067 for the second.

YHCKTPDCKYWCFFEDDVNEFTCPVCFHVNCLLCKAIHEQMNC [G10Y] and YHCKTPDCKGWCFFEDDVNEFTCPVCFHVNCLLCKAIHEQMNV [C43V] are within error of each other in abundance fitness: -0.343 ± 0.46 for the first, -0.396 ± 0.071 for the second.

YHCKTPDCKGWCFFEDDVNEFTCPVCFHVNCLLCKAIHEQMNY [C43Y] and YHCKTPDCKGWCFFEDDVNEFTCPVCFHVNCLLCKAIIEQMNC [H38I] are within error of each other in abundance fitness: -0.424 ± 0.12 for the first, -0.881 ± 0.42 for the second.

YHCKTPDCKGWCFFEDDVNEFTCPVCFHVNQLLCKAIHEQMNC [C31Q] and YHCKTPDCKGWCFFEDDVNEFTCPVCFHVNTLLCKAIHEQMNC [C31T] are within error of each other in abundance fitness: -0.521 ± 0.077 for the first, -0.451 ± 0.057 for the second.

Compared with YHCKTPDCKGWCFFEDDVNEFTCPVCFHVNCALCKAIHEQMNC [L32A], YHPKTPDCKGWCFFEDDVNEFTCPVCFHVNCLLCKAIHEQMNC [C3P] is lower in abundance fitness: -0.231 ± 0.044 for the first, -1.13 ± 0.12 for the second.

Compared with YHFKTPDCKGWCFFEDDVNEFTCPVCFHVNCLLCKAIHEQMNC [C3F], YHCKTPDCKGWCFFEDDVNEFTCPVCFHVNCLLCKAIHEQMFC [N42F] is higher in abundance fitness: -1.12 ± 0.23 for the first, -0.415 ± 0.12 for the second.

YHCKTPDCKGWCFFEDDVNEFTCPVCFHVNCLLCKAIHEQMWC [N42W] and YHCKTPDCKGWCFFEDDVNEFTCPVCFHVNCLLCKAIHEQMLC [N42L] are within error of each other in abundance fitness: -0.069 ± 0.085 for the first, -0.196 ± 0.056 for the second.

Compared with YHCKTPDCKGWCFFEDDVNEFTCPVCFHVNCLLCHAIHEQMNC [K35H], YHCKTPDCKGWCFFEDDVNEFTCPVCFHVNCLLCVAIHEQMNC [K35V] is lower in abundance fitness: -0.023 ± 0.067 for the first, -0.406 ± 0.05 for the second.

YHCKTPDCKGWCFEEDDVNEFTCPVCFHVNCLLCKAIHEQMNC [F14E] and YHCKTPDCKGWCFFEDDVNEFTCPVCFHVNCLLCKAIHFQMNC [E39F] are within error of each other in abundance fitness: -0.082 ± 0.082 for the first, -0.213 ± 0.11 for the second.

Variants of: B2
Assay: as above
Details: Homo sapiens

A52N and A52R are within error of each other in abundance fitness: -0.03 ± 0.17 for the first, -0.194 ± 0.14 for the second.

A52F and A52L are within error of each other in abundance fitness: -0.361 ± 0.15 for the first, -0.499 ± 0.25 for the second.

Going from A52K to A52W, the abundance fitness falls from -0.064 ± 0.086 to -0.505 ± 0.15.

A52H and A52G are within error of each other in abundance fitness: -0.05 ± 0.21 for the first, -0.205 ± 0.12 for the second.

A52E and A52S are within error of each other in abundance fitness: 0.059 ± 0.19 for the first, -0.104 ± 0.19 for the second.

A52M and A52V are within error of each other in abundance fitness: -0.269 ± 0.26 for the first, -0.348 ± 0.076 for the second.

A52D and A52C are within error of each other in abundance fitness: -0.044 ± 0.22 for the first, -0.143 ± 0.17 for the second.

First: A52T
Second: F47W
The abundance fitness of the first is higher: 0.172 ± 0.13 for the first, -0.908 ± 0.44 for the second.

F47D and F47Y are within error of each other in abundance fitness: -0.576 ± 0.46 for the first, -0.455 ± 0.49 for the second.

F47R and F47V are within error of each other in abundance fitness: -0.952 ± 0.2 for the first, -0.841 ± 0.25 for the second.

F47I and F47S are within error of each other in abundance fitness: -0.449 ± 0.18 for the first, -0.724 ± 0.37 for the second.

F47G and F47E are within error of each other in abundance fitness: -0.855 ± 0.09 for the first, -0.942 ± 0.32 for the second.

F47A and F47C are within error of each other in abundance fitness: -0.698 ± 0.17 for the first, -0.851 ± 0.28 for the second.

Compared with F47L, L54K is higher in abundance fitness: -0.842 ± 0.19 for the first, -0.119 ± 0.14 for the second.

L54M and L54D are within error of each other in abundance fitness: -0.195 ± 0.22 for the first, -0.071 ± 0.13 for the second.

L54P and L54V are within error of each other in abundance fitness: 0.222 ± 0.19 for the first, -0.082 ± 0.13 for the second.

First: L54W
Second: L54R
The abundance fitness of the first is higher: -0.205 ± 0.084 for the first, -0.596 ± 0.079 for the second.

Compared with L54F, L54C is lower in abundance fitness: 0.312 ± 0.17 for the first, -0.031 ± 0.11 for the second.

Going from L54G to L54I, the abundance fitness falls from 0.319 ± 0.1 to 0.074 ± 0.08.

First: L54E
Second: L54A
The abundance fitness of the first is higher: 0.203 ± 0.085 for the first, -0.34 ± 0.12 for the second.

Compared with L54Q, K55S is lower in abundance fitness: 0.01 ± 0.16 for the first, -0.399 ± 0.12 for the second.

Going from K55E to K55H, the abundance fitness falls from 0.334 ± 0.17 to -0.27 ± 0.12.

K55G gave an abundance fitness of -0.302 ± 0.21.
